Consider 2 molecules from WO2013059531A1 (dated 2013).

Assay [1] addresses solubilized, full length GCGR, biotinylated (from baculovirus particles) (Homo sapiens (Human)) (UniProt P47871). Put plainly: Octet BLI kinetics, biotinylated solubilized full length GCGR on streptavidin tips, Fab in solution. For orientation: BLI is a label-free optical method that tracks binding on a fibre tip over time.
In assay [2] the target is T1, GCGR (glucagon receptor) on primary human hepatocytes (human, UniProt P47871 26-477).
T1 construct: Endogenous receptor on primary human hepatocytes (Celsis)
T1 sequence (P47871 26-477 limits assumed): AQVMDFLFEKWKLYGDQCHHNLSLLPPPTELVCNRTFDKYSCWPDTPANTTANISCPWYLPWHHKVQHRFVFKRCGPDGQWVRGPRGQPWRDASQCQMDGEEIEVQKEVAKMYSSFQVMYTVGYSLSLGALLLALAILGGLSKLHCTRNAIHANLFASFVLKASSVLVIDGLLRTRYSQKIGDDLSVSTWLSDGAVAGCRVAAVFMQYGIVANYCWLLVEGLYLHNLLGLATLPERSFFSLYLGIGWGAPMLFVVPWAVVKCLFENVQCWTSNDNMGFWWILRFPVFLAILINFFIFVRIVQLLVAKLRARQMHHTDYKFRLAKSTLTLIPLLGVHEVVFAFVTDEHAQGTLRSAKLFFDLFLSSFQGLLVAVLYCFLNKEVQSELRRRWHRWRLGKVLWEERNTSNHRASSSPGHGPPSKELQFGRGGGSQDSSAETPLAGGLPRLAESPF
As to the kind of experiment: competition with 3 nM 125I-glucagon on primary human hepatocytes, gamma counting.

solubilized, full length GCGR, biotinylated (from baculovirus particles) (Homo sapiens (Human)), sequence (P47871 26-477): as the sequence (P47871 26-477 limits assumed) above

B1: H6.23v3 Fab fragment (Fab, V domains shown)
VH: EVQLVESGGGLVQPGGSLRLSCAASGFNIYYNYIHWVRQAPGKGLEWVAEFSPYSGSTYYADSVKGRFTISADTSKNTAYLQMNSLRAEDTAVYYCARSAAIVDWYDYFKGFDYWGQGTLVTVSS
VL: DIQMTQSPSSLSASVGDRVTITCRASQSVSSAVAWYQQKPGKAPKLLIYSASSLYSGVPSRFSGSRSGTDFTLTISSLQPEDFATYYCQQYGSYLYTFGQGTKVEIK
As to B1, the fold increase in affinity (Kd) over H6.23v2 in assay [1] came to 3 fold.

B2: anti-GCGR antibody H6.23v3 (antibody, V domains shown)
VH: EVQLVESGGGLVQPGGSLRLSCAASGFNIYYNYIHWVRQAPGKGLEWVAEFSPYSGSTYYADSVKGRFTISADTSKNTAYLQMNSLRAEDTAVYYCARSAAIVDWYDYFKGFDYWGQGTLVTVSS
VL: DIQMTQSPSSLSASVGDRVTITCRASQSVSSAVAWYQQKPGKAPKLLIYSASSLYSGVPSRFSGSRSGTDFTLTISSLQPEDFATYYCQQYGSYLYTFGQGTKVEIK
Consider B2, for which the binding result in assay [2] was “binds”.
